Conditions in all cases: LightShift EMSA: 1x binding buffer, 2.5% glycerol, 5 mM MgCl2, 0.05% NP-40, 5 mM EDTA, 20 ng probe, 0-0.5 ng protein (so in the source), 20 uL, 20 min at 26 C; 6% …
For orientation: In EMSA bound probe runs differently from free probe, usually more slowly.

Series [1] addresses T1, OxyR (Pseudomonas aeruginosa PA14) (UniProt A0A0H2ZI92).
T1 sequence: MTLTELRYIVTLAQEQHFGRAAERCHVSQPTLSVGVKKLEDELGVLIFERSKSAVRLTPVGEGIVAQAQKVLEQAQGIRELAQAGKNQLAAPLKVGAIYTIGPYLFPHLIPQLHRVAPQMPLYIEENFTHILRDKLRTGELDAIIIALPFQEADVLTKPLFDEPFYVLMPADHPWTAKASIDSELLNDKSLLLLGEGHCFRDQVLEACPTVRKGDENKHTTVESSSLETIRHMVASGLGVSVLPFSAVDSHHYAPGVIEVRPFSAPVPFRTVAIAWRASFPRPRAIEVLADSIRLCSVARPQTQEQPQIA
Put plainly: competition.

Series [2] has as its target T2, OmpR (Pseudomonas aeruginosa PA14) (UniProt A0A0H2ZIR0).
T2 sequence: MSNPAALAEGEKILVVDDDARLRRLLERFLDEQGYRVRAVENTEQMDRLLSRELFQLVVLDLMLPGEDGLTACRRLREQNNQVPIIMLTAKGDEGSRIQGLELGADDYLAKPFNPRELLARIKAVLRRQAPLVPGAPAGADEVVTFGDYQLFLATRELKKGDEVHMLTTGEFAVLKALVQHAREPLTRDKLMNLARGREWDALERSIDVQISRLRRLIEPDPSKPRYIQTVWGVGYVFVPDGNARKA
Put plainly: competition.

Series [3] deals with T1, OxyR (Pseudomonas aeruginosa PA14). Put plainly: EMSA.
Series [4] has as its target T2, OmpR (Pseudomonas aeruginosa PA14). Put plainly: EMSA.

For the sequence “CGATGCGCCCGTCGGCGTAGCGTTTATGTAGTTCAGCGCGCGATACACCTGTCCCTTGAAGGCGGAGGGATACGGGCTTTCCTCGTAGAAGCCGGTGGCTTCGTTGAGCACCTCCCAATCGCTGTCCTGGGTCAGCACGGCGATTCCGGGCGGGGTCGCATGATACAGGCCGTTCGTGGGGCGCCAGTATTCGATGGTTCGGGGCAT (double strand) [Unrelated DNA (control)]”, the binding result in series [1] and in series [2] was “no binding” in each case.

In the case of “GGGAGTCCAACGAAAATTTTATTTTGCAAATCCATAGACCTGTTCTAGCGTCTTTTGTAGTTCGTCGCCAGTGACGGACCAGAGGGATCGCCAAGGACAGGTTCTGCGCCGTTTTCCCTGTCATGCCTGTGATCCAGCAAGGGACTGCGATGATCAGGGCATCCCCCGATGCATTGCGCCCCCACCATTGCATCGGAGTCAGCCGCC (double strand) [Bio-PH3-T6SS left]”, the binding result in series [3] and in series [4] was “binds” in each case.

(Values after article PMC10442045.)
